Measured values from publication PMC7818228, “Laser‐facilitated epicutaneous immunotherapy with hypoallergenic beta‐glucan neoglycoconjugates suppresses lung inflammation and avoids local side effects in a mouse model of allergic asthma” (Allergy, 2020).

Experiments:
Test in all cases: MST; in solution; Monolith NT.115 RED; Hill fit model for multiple binding; apparent dissociation constants (Kdapp); three independent binding experiments
[1] = molecular target: soluble receptor TLR5 (UniProt Q9JLF7)
Chain of soluble receptor TLR5 (UniProt Q9JLF7) (Q9JLF7 27-641): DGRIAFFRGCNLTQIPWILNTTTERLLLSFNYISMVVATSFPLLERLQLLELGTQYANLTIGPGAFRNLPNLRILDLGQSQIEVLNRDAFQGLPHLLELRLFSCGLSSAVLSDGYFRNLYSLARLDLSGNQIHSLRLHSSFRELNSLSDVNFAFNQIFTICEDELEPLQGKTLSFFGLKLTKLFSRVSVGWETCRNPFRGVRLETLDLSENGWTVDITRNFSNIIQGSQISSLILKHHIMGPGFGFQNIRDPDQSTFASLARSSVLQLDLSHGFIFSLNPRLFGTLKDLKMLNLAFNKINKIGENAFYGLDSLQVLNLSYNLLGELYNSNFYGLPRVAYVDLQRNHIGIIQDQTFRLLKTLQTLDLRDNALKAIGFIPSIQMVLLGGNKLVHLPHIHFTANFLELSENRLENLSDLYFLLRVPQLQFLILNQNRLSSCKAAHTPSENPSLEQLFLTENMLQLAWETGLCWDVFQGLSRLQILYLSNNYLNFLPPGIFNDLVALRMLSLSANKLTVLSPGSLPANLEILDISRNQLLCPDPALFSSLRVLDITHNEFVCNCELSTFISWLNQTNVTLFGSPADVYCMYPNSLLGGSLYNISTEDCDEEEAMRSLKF

[2] = molecular target: soluble murine Fc-Dectin-1a receptor (mouse) (UniProt Q6QLQ4)
Chain of soluble murine Fc-Dectin-1a receptor (mouse) (Q6QLQ4 71-244): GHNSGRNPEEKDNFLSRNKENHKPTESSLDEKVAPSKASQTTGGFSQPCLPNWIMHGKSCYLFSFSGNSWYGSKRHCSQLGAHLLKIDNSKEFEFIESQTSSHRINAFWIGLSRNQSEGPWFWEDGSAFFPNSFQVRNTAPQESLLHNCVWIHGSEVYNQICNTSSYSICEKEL

[3] = molecular target: soluble receptor TLR5 (UniProt Q9JLF7 27-641, Supplement states soluble human TLR5 fused to an IgG1 Fc domain (Fc carrier left out; 2 copies assumed from Fc dimerisation); limits are the UniProt extracellular domain by convention; lysine/amine la); settings: both partners purified
Chain of soluble receptor TLR5 (UniProt Q9JLF7 27-641, Supplement states soluble human TLR5 fused to an IgG1 Fc domain (Fc carrier left out; 2 copies assumed from Fc dimerisation); limits are the UniProt extracellular domain by convention; lysine/amine la) (Q9JLF7 27-641): as the sequence (Q9JLF7 27-641) above

| Molecule | Kdapp (concentration basis not stated; compared with the 0.99 µM for Dectin-1) [1] [µM] | Kd [2] [nM] | Kdapp counted on the laminarin concentration (carbohydrate to protein ratio 0.6) [2] [µM] | Kdapp counted on the laminarin concentration (carbohydrate to protein ratio 2.5, anthrone method) [2] [µM] | Kd [3] [nM] |
| --- | --- | --- | --- | --- | --- |
| laminarin-ovalbumin neoglycoconjugate (LamOVA) (from UniProt P01012 1-386) | 6 | 170 | 0.99 | 4.22 |  |
| ovalbumin (EndoFit Ovalbumin, endotoxin-free) (natural protein, UniProt P01012 1-386, looked up, ovalbumin (OVA), endotoxin-free commercial preparation; crystal structure 1OVA named for it; Commercial ovalbumin; also called unconjugated OVA; soluble OVA; source: bought: InvivoGen (EndoFit Ovalbumin)) MGSIGAASMEFCFDVFKELKVHHANENIFYCPIAIMSALAMVYLGAKDSTRTQINKVVRFDKLPGFGDSIEAQCGTSVNVHSSLRDILNQITKPNDVYSFSLASRLYAEERYPILPEYLQCVKELYRGGLEPINFQTAADQARELINSWVESQTNGIIRNVLQPSSVDSQTAMVLVNAIVFKGLWEKAFKDEDTQAMPFRVTEQESKPVQMMYQIGLFRVASMASEKMKILELPFASGTMSMLVLLPDEVSGLEQLESIINFEKLTEWTSSNVMEERKIKVYLPRMKMEEKYNLTSVLMAMGITDVFSSSANLSGISSAESLKISQAVHAAHAEINEAGREVVGSAEAGVDAASVSEEFRADHPFLFCIKHIATNAVLFFGRCVSP |  | 5330 |  |  | 800 ± 300 |
